Measurements taken from the supplement of paper PMC10126150.
± gives the standard deviation of the averaged measurements.
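Note: ATP exposure 15 min at 22 °C before imaging.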

These sequences were tested on ATP (assay: switch fluorescence ratio, 500 uM ATP over buffer (Cy3 cluster intensity, sum of 5 cycles each) (fold (ratio)); higher = stronger signal-on switching upon ATP binding; sequences stand for … in TCGTCGGCAGCGTCAGATGTGTATAAGAGACAGTTTTTTTTTTTTTTTTTTTTTTTTT…TC). Conditions: aptamer strand: ATP DNA aptamer (quencher-CACCTGGGGGAGTATTGCGGAGGAAGG + anchor), 100 nM annealed; ATP concentration: 500 uM.
In short: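 Clusters with intensities outside 100-1000 RFU were excluded. The remaining Cy3-labelled switching-strand clusters on a modified Illumina MiSeq flow-cell had been annealed to 100 nM quencher-labelled ATP aptamer and imaged in selection buffer, then after 15 min with 500 uM ATP at 22 °C, for five cycles separated by NaOH stripping and re-annealing. The fluorescence ratio, averaged per switch-domain sequence, is each cluster's summed target-cycle Cy3 intensity over its summed buffer-cycle Cy3 intensity.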
TGGGCCGGGT showed a switch fluorescence ratio of 1.03 ± 0.055.
For TGGGCGAAAA, the switch fluorescence ratio was 0.974 ± 0.045.
Sequence TGGGCGACCG has a switch fluorescence ratio of 0.99 ± 0.021.
TGGGCGGGGT was tested, and the switch fluorescence ratio was 1.02 ± 0.031.
TGGGCGGGTT gave a switch fluorescence ratio of 0.989 ± 0.032.
For TGGGCGGTGT, the switch fluorescence ratio was 0.992 ± 0.037.
With TGGGCGTAAG the switch fluorescence ratio was 1.02 ± 0.027.
For TGGGCGTCGG, the switch fluorescence ratio was 0.999 ± 0.032.
In the case of TGGGCTACTC, the switch fluorescence ratio is reported as 1.1 ± 0.044.
In the case of TGGGCTAGAT, the switch fluorescence ratio is reported as 0.998 ± 0.053.
TGGGCTGGTA was tested, and the switch fluorescence ratio was 0.972 ± 0.025.
TGGGCTTAGT gave a switch fluorescence ratio of 0.992 ± 0.012.
In the case of TGGGGAAAGG, the switch fluorescence ratio is reported as 0.978 ± 0.034.
TGGGGAAAGT gave a switch fluorescence ratio of 1.03 ± 0.036.
Work on TGGGGAACCT yielded a switch fluorescence ratio of 0.96 ± 0.032.
TGGGGAATAG was tested, and the switch fluorescence ratio was 1.04 ± 0.057.
Work on TGGGGACAAA yielded a switch fluorescence ratio of 0.986 ± 0.019.
For TGGGGACGGA, the switch fluorescence ratio was 1.02 ± 0.054.
In the case of TGGGGAGAGG, the switch fluorescence ratio is reported as 1.02 ± 0.037.
In the case of TGGGGAGCCT, the switch fluorescence ratio is reported as 1.03 ± 0.041.
With TGGGGAGGAA the switch fluorescence ratio was 1 ± 0.011.
TGGGGATATG showed a switch fluorescence ratio of 0.997 ± 0.019.
Work on TGGGGATCCG yielded a switch fluorescence ratio of 1.016 ± 0.0095.
TGGGGATCGC gave a switch fluorescence ratio of 0.983 ± 0.034.
With TGGGGATCTC the switch fluorescence ratio was 1.01 ± 0.024.
TGGGGATGGA gave a switch fluorescence ratio of 0.998 ± 0.02.
TGGGGATGTT was tested, and the switch fluorescence ratio was 1.01 ± 0.049.
In the case of TGGGGATTCT, the switch fluorescence ratio is reported as 0.976 ± 0.0054.
Sequence TGGGGCAGGG has a switch fluorescence ratio of 1.44 ± 0.62.
TGGGGCCGGG showed a switch fluorescence ratio of 1.01 ± 0.016.
TGGGGCGC showed a switch fluorescence ratio of 1.01 ± 0.097.
Work on TGGGGCGCAT yielded a switch fluorescence ratio of 1.09 ± 0.064.
With TGGGGCGCTG the switch fluorescence ratio was 0.981 ± 0.011.
For TGGGGGAACG, the switch fluorescence ratio was 0.984 ± 0.026.
Sequence TGGGGGACGA has a switch fluorescence ratio of 0.954 ± 0.032.
TGGGGGAGAG was tested, and the switch fluorescence ratio was 1.01 ± 0.03.
TGGGGGAGCT was tested, and the switch fluorescence ratio was 1.05 ± 0.11.
TGGGGGAGGA was tested, and the switch fluorescence ratio was 0.979 ± 0.02.
TGGGGGATGT was tested, and the switch fluorescence ratio was 1.01 ± 0.013.
TGGGGGATTC gave a switch fluorescence ratio of 1.03 ± 0.067.
Sequence TGGGGGCAGC has a switch fluorescence ratio of 1.02 ± 0.025.
Work on TGGGGGCAGG yielded a switch fluorescence ratio of 1.01 ± 0.047.
In the case of TGGGGGCATA, the switch fluorescence ratio is reported as 1.09 ± 0.1.
In the case of TGGGGGCATT, the switch fluorescence ratio is reported as 1.01 ± 0.033.
With TGGGGGCCCG the switch fluorescence ratio was 0.995 ± 0.047.
Sequence TGGGGGCCGT has a switch fluorescence ratio of 1.02 ± 0.14.
Sequence TGGGGGCGGG has a switch fluorescence ratio of 1 ± 0.033.
TGGGGGCGTC was tested, and the switch fluorescence ratio was 1.02 ± 0.036.
Work on TGGGGGCTAG yielded a switch fluorescence ratio of 0.997 ± 0.037.
TGGGGGCTGT was tested, and the switch fluorescence ratio was 0.998 ± 0.016.
For TGGGGGCTT, the switch fluorescence ratio was 1.03 ± 0.014.
TGGGGGGAGA showed a switch fluorescence ratio of 1.01 ± 0.045.
With TGGGGGGCAC the switch fluorescence ratio was 0.986 ± 0.043.
TGGGGGGGTG was tested, and the switch fluorescence ratio was 1.01 ± 0.033.
Sequence TGGGGGGGTT has a switch fluorescence ratio of 1 ± 0.034.
Work on TGGGGGGTCG yielded a switch fluorescence ratio of 1.03 ± 0.051.
TGGGGGGTTC gave a switch fluorescence ratio of 1.04 ± 0.082.
For TGGGGGGTTT, the switch fluorescence ratio was 1 ± 0.04.
For TGGGGGTAGC, the switch fluorescence ratio was 1.001 ± 0.0091.
In the case of TGGGGGTATT, the switch fluorescence ratio is reported as 1.05 ± 0.16.
TGGGGGTCAC showed a switch fluorescence ratio of 0.9632 ± 0.0067.
With TGGGGGTCGG the switch fluorescence ratio was 1.03 ± 0.017.
With TGGGGGTCTG the switch fluorescence ratio was 1.01 ± 0.045.
TGGGGGTGG was tested, and the switch fluorescence ratio was 0.957 ± 0.046.
TGGGGGTGTC was tested, and the switch fluorescence ratio was 1.03 ± 0.024.
Sequence TGGGGTAATG has a switch fluorescence ratio of 0.995 ± 0.038.
Work on TGGGGTATAA yielded a switch fluorescence ratio of 1.001 ± 0.0042.
TGGGGTATTT was tested, and the switch fluorescence ratio was 0.997 ± 0.04.
TGGGGTCCGG showed a switch fluorescence ratio of 0.97 ± 0.079.
For TGGGGTGGAG, the switch fluorescence ratio was 0.97 ± 0.032.
TGGGGTGGCG showed a switch fluorescence ratio of 1.01 ± 0.067.
TGGGGTTAGA gave a switch fluorescence ratio of 0.978 ± 0.029.
TGGGGTTAGG was tested, and the switch fluorescence ratio was 1 ± 0.024.
With TGGGGTTGCA the switch fluorescence ratio was 0.99 ± 0.015.
TGGGGTTGGA was tested, and the switch fluorescence ratio was 1.01 ± 0.025.
Sequence TGGGGTTTGT has a switch fluorescence ratio of 0.976 ± 0.03.
For TGGGTAACAT, the switch fluorescence ratio was 0.99 ± 0.031.
In the case of TGGGTAGGAA, the switch fluorescence ratio is reported as 1.0335 ± 0.00064.
TGGGTAGGGT showed a switch fluorescence ratio of 0.991 ± 0.036.
TGGGTAGGTG showed a switch fluorescence ratio of 1.11 ± 0.028.
TGGGTAGTTT gave a switch fluorescence ratio of 1 ± 0.015.
TGGGTATGGG was tested, and the switch fluorescence ratio was 1.01 ± 0.037.
TGGGTATTCG showed a switch fluorescence ratio of 0.967 ± 0.029.
For TGGGTCAAAT, the switch fluorescence ratio was 1.02 ± 0.027.
Sequence TGGGTCACAA has a switch fluorescence ratio of 0.992 ± 0.024.
